Patent US20250361297A1, “ANTI- SIGLEC-15 BINDING MOLECULES AND METHODS OF USE” (ADAPTAM THERAPEUTICS, S.L., priority 2024, published 2025)

Molecular target: T1, human Siglec-15 (Homo sapiens, UniProt Q6ZMC9)
T1 construct: expressed in transfected cells
T1 sequence (Q6ZMC9 20-328): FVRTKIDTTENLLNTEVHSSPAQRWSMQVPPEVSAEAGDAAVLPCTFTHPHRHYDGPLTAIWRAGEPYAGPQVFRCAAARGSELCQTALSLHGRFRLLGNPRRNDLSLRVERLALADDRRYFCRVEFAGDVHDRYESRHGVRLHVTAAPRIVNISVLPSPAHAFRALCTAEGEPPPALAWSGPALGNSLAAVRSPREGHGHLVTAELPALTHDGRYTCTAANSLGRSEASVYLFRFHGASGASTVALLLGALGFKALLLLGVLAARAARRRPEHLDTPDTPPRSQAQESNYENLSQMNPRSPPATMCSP
Test: Competitive flow cytometry assay with benchmark antibodies
Type: binding
Description: Epitope mapping assay by Flow cytometry: Competition with benchmark mouse IgG antibodies: 50,000 cells/well of THP-1 S15 OE were added to a round bottom 96 well plate, and centrifuged at 450×G for 5 minutes, and the supernatant was discarded. Human anti-siglec-15 IgG antibodies (starting at 198 nM, 3-fold serial dilution in staining buffer) were added to 100 μl of staining buffer and cells were resuspended with it and incubated for 40 minutes on ice. 100 μl of staining buffer were added to wells, centrifuged at 450× G for 5 minutes and the supernatants discarded. Benchmark mouse IgG antibodies were diluted at 33.3 nM and cells resuspended in 100 μl of the mix and incubated for 40 minutes on ice. Then, 100 μl of staining buffer were added to wells, centrifuged at 450×G for 5 minutes and the supernatants discarded. The secondary antibody anti-mouse IgG-Alexa647 was prepared at 1:200 dilution in 100 μl of staining buffer and added to each well, and cells were incubated for 40 minutes on ice. Cells were washed with 100 μl of staining buffer and centrifuged at 450×G for 5 minutes to discard the supernatant. Cells were resuspended in 150 μl of staining buffer and acquired in a flow cytometer.

inhibition of binding of 5G12 (benchmark 1) (competitive flow cytometry (FIG. 18A)): outperformed A2A5C7E8
inhibition of binding of A2A5C7E8 (benchmark 2) (competitive flow cytometry (FIG. 18B)): outperformed 5G12
B1: S15B1: parental mouse anti-Siglec-15 monoclonal antibody from hybridoma; VH SEQ ID NO: 18, VL SEQ ID NO: 19 (antibody, V domains shown)
VH: QVQLQQSGPELVKPGASVKISCKASGYAFSSSWMNWVKQRPGKGLEWIGRIYPGHGETNYNGKFKDKATVTADKSSSTTYMQLSSLTSEDSAVYFCARVDNSDPYYFDYWGQGTTLTVSS
VL: DIVLTQSPASLAVSLGQRATISCRASKSVSTSGYSYMHWYQQKPGQPPKLLIYLASNLESGVPARFSGSGSGTDFTLNIHPVEEEDAATYYCQHGRELPFTFGSGTKLEIK
modifications: Clone S15B1 VH; Clone S15B1 VL
